# Reference: patent US20250270332A1
# Biological target: FZD1/2/4/5/7/8
# Test: cell-based or functional assay
binder,measurement,value
ANT-1 (bispecific antibody) heavy 1: MNLLLILTFVAAAVAEFEVQLVESGGGLVQPGGSLRLSCAASGFNISSYYIHWVRQAPGKGLEWVASIYSSYGYTSYADSVKGRFTISADTSKNTAYLQMNSLRAEDTAVYYCARTVRGSKKPYFSGWAMDYWGQGTLVTVSSGGGGSDIQMTQSPSSLSASVGDRVTITCRASQSVSSAVAWYQQKPGKAPKLLIYSASSLYSGVPSRFSGSRSGTDFTLTISSLQPEDFATYYCQQYYFLITFGQGTKVEIKLEDKTHTKVEPKSSDKTHNCPPCPAPELLGGPSVFLFPPKPKDTLMISRTPEVTCVVVDVSHEDPEVKFNWYVDGVEVHNAKTKPREEQYNSTYRVVSVLTVLHQDWLNGKEYKCKVSNKALPAPIEKTISKAKGQPREPQVYTLPPIRELMTSNQVSLSCAVKGFYPSDIAVEWESNGQPENNYKTTPPVLDSDGSFFLVSKLTVDKSRWQQGNVFSCSVMHEALHNHYTQKSLSLSPGKSGSETPGTSESATPESGGGEVQLVESGGGLVQPGGSLRLSCAASGFNIHSSSIHWVRQAPGKGLEWVAATYSSFGSITYADSVKGRFTISADTSKNTAYLQMNSLRAEDTAVYYCARYHHPFGYALDYWGQGTLVTVSSASTKGPSVFPLAPSSKSTSGGTAALGCLVKDYFPEPVTVSWNSGALTSGVHTFPAVLQSSGLYSLSSVVTVPSSSLGTQTYICNVNHKPSNTKVDKKVEPKSCDKTHT heavy 2: MNLLLILTFVAAAVAEFEVQLVESGGGLVQPGGSLRLSCAASGFNISYSSIHWVRQAPGKGLEWVASISPYYGYTYYADSVKGRFTISADTSKNTAYLQMNSLRAEDTAVYYCARSSYFPWFSAMDYWGQGTLVTVSSGGGGSDIQMTQSPSSLSASVGDRVTITCRASQSVSSAVAWYQQKPGKAPKLLIYSASSLYSGVPSRFSGSRSGTDFTLTISSLQPEDFATYYCQQYYWPITFGQGTKVEIKLEDKTHTKVEPKTSDKTHTCPPCPAPELLGGPSVFLFPPKPKDTLMISRTPEVTCVVVDVSHEDPEVKFNWYVDGVEVHNAKTKPREEQYNSTYRVVSVLTVLHQDWLNGKEYKCKVSNKALPAPIEKTISKAKGQPREPMVFDLPPSREEMTKNQVSLWCMVKGFYPSDIAVEWESNGQPENNYKTTPPVLDSDGSFFLYSKLTVDKSRWQQGNVFSCSVMHEALHNHYTQKSLSLSPGKSGSETPGTSESATPESGGGEVQLVESGGGLVQPGGSLRLSCAASGFNIHSSSIHWVRQAPGKGLEWVAATYSSFGSITYADSVKGRFTISADTSKNTAYLQMNSLRAEDTAVYYCARYHHPFGYALDYWGQGTLVTVSSASTKGPSVFPLAPSSKSTSGGTAALGCLVKDYFPEPVTVSWNSGALTSGVHTFPAVLQSSGLYSLSSVVTVPSSSLGTQTYICNVNHKPSNTKVDKKVEPKSCDKTHT light: DIQMTQSPSSLSASVGDRVTITCRASQSVSSAVAWYQQKPGKAPKLLIYSASSLYSGVPSRFSGSRSGTDFTLTISSLQPEDFATYYCQQGVYLFTFGQGTKVEIKRTVAAPSVFIFPPSDEQLKSGTASVVCLLNNFYPREAKVQWKVDNALQSGNSQESVTEQDSKDSTYSLSSTLTLSKADYEKHKVYACEVTHQGLSSPVTKSFNRGEC,% Wnt Maxima Avg,49%
same,"EC50 (nM), TOPFLASH assay",0.7 nM
same,Maximal Signal (% Wnt3a maxima) (% Wnt3a maxima),50
same,Topflash EC50 (nM) Avg,0.7 nM
